Data from US20020086983A1.

How the values were obtained:
B42 = experiment: yeast two-hybrid liquid b-gal assay; activation hybrid alone (background control); four independent experiments
[1] = target: B42-Mch5b-FDH-A (residues 3-80) (UniProt Q14790); experiment: yeast two-hybrid liquid b-gal assay; four independent experiments
[2] = target: B42-Mch5b-FDH (residues 3-177) (UniProt Q14790); experiment: as above
[3] = target: B42-Mch5b-FDH-B (residues 102-177) (UniProt Q14790); experiment: as above
Chain of B42-Mch5b-FDH-B (residues 102-177) (Q14790 102-177, form in doubt): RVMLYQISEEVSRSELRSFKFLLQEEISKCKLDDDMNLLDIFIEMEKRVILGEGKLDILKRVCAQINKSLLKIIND

Chain of B42-Mch5b-FDH (residues 3-177) (Q14790 3-177, form in doubt): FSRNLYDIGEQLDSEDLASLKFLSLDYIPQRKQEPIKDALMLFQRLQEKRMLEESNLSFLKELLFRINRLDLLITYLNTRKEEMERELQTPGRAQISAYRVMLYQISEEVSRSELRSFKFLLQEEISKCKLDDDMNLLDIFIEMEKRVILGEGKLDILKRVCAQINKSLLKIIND
Chain of B42-Mch5b-FDH-A (residues 3-80) (Q14790 3-80, form in doubt): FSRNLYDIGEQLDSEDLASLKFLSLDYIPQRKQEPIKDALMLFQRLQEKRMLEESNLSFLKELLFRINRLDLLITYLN

Substance: LexA-FLAME-1-FDH (residues 1-160) (from UniProt O15519 1-160)
- Liquid assay b-gal activity (B42): 23.2 Miller units
- Liquid assay b-gal activity [1]: 52.7 Miller units
- Liquid assay b-gal activity [2]: 300 Miller units
- Liquid assay b-gal activity [3]: 728 Miller units
